Assay results as given in patent publication US20160205946A1, “ENZYMATIC IN SITU PREPARATION OF PERACID-BASED REMOVABLE ANTIMICROBIAL COATING COMPOSITIONS AND METHODS OF USE” (THE CHEMOURS COMPANY FC, LLC, priority 2009, published 2016).

B1: T. maritima perhydrolase spray-dried enzyme powder: Spray-dried wild type acetyl xylan esterase from Thermotoga maritima, 27.8 wt % protein (protein, UniProt Q9WXT2 1-325, looked up)
Cephalosporin-C deacetylase: MAFFDLPLEELKKYRPERYEEKDFDEFWEETLAESEKFPLDPVFERMESHLKTVEAYDVTFSGYRGQRIKGWLLVPKLEEEKLPCVVQYIGYNGGRGFPHDWLFWPSMGYICFVMDTRGQGSGWLKGDTPDYPEGPVDPQYPGFMTRGILDPRTYYYRRVFTDAVRAVEAAASFPQVDQERIVIAGGSQGGGIALAVSALSKKAKALLCDVPFLCHFRRAVQLVDTHPYAEITNFLKTHRDKEEIVFRTLSYFDGVNFAARAKIPALFSVGLMDNICPPSTVFAAYNYYAGPKEIRIYPYNNHEGGGSFQAVEQVKFLKKLFEKG
modifications: spray-dried powder
notes: Spray-dried wild type acetyl xylan esterase from Thermotoga maritima, 27.8 wt % protein
B2: T. maritima C277S perhydrolase spray-dried enzyme powder: Spray-dried T. maritima acetyl xylan esterase C277S mutant, 25.5 wt % protein (protein, UniProt Q9WXT2 1-325, looked up, variant C277S)
Cephalosporin-C deacetylase: MAFFDLPLEELKKYRPERYEEKDFDEFWEETLAESEKFPLDPVFERMESHLKTVEAYDVTFSGYRGQRIKGWLLVPKLEEEKLPCVVQYIGYNGGRGFPHDWLFWPSMGYICFVMDTRGQGSGWLKGDTPDYPEGPVDPQYPGFMTRGILDPRTYYYRRVFTDAVRAVEAAASFPQVDQERIVIAGGSQGGGIALAVSALSKKAKALLCDVPFLCHFRRAVQLVDTHPYAEITNFLKTHRDKEEIVFRTLSYFDGVNFAARAKIPALFSVGLMDNISPPSTVFAAYNYYAGPKEIRIYPYNNHEGGGSFQAVEQVKFLKKLFEKG
modifications: spray-dried powder
notes: Spray-dried T. maritima acetyl xylan esterase C277S mutant, 25.5 wt % protein

Test: pNPA microplate assay (enzyme specific activity)
Format: biochemical
Settings: 30 °C, pH 7.2
Description: Into each of four wells of a 96-well microplate were added 170 μL of potassium phosphate buffer (50 mM, pH 7.2) and either 10 μL of 0.1 mg total protein/mL of cell lysate, or 10 μL of 0.02 mg total protein/mL of a spray-dried enzyme solution. The plate was covered and placed in a microplate reader (Molecular Devices SPECTRAmax® 384 Plus), then mixed for several seconds and equilibrated at 30° C. for 10 minutes. To each well of the plate was then simultaneously added 20 μL of a 30 mM pNPA solution prepared by mixing (immediately prior to use) 0.6 mL of 100 mM pNPA in acetonitrile with 1.4 mL of 50 mM potassium phosphate buffer (pH 7.2). The change in absorbance at 400 nm was measured over 1 minute of reaction time. The background rate of pNPA hydrolysis (subtracted from the rate of hydrolysis measured in the presence of enzyme) was separately measured in four wells by substituting 10 μL/well of potassium phosphate buffer (50 mM, pH 7.2) for cell lysate or enzyme-containing solution. The extinction coefficient for para-nitrophenol, measured at pH 7.2 in a 1-cm path length cell, was 10,909 L·cm^−1·mol^−1. One pNPA Unit of enzyme activity is equivalent to the amount of protein that catalyzes the hydrolysis of one micromole of pNPA in one minute.

Molecule	Specific activity of spray-dried enzyme powder
B1	86.1 pNPA U/mg protein
B2	129.5 pNPA U/mg protein
